According to the Human Domainome abundance scans (Beltran et al. 2025):

B1: POU domain, class 4, transcription factor 1, residues 266 to 347; numbered along this chain, Q01851 (parent)
chain: RELEAFAERFKQRRIKLGVTQADVGSALANLKIPGVGSLSQSTICRFESLTLSHNNMIALKPILQAWLEEAEGAQREKMNKP

Variants of: B1
Assay: abundance fitness (aPCA) (normalised: wild type 0, dead -1); higher = more abundant; growth selection in yeast, the domain comes from the species named
Conditions: Homo sapiens

Abundance fitness of substitutions, site by site:
Q21: F -0.072, V -0.083, R -0.058, E -0.023, W -0.141, C -0.083, M -0.111, P -0.045, Y -0.07, H 0.006, T -0.072, I 0.022, A -0.044, S -0.09, K 0.062, N -0.516
A27: T -0.069, S -0.023, F -0.284, D -0.043, G -0.153, V -0.16, I -0.245, K -0.058, R -0.081, W -0.088, C 0.01, M -0.175, P -1.23, H -0.07, E -0.035, L -0.288, Q -0.046, N -0.071
T20: E -0.124, A -0.052, S -0.117, L -0.078, C 0.008, R -0.087, N -0.261, V -0.567, I -0.725
A22: G -0.017, N 0.11, D -0.121, P 0.13, M -0.237, T -0.068, V -0.242, Y 0.043, E 0.043, W -0.038, C -0.098, I -0.218, H 0.01
Q12: Y -0.13, C -0.466, V -0.117, I -0.144, S -0.06, P -0.896, G -0.205, T -0.021, D -0.027, F -0.133, N 0.031, A -0.004, L -0.078, H -0.097, W -0.339, M -0.034, K -0.029, E 0.015, R -0.14
S26: H -0.005, V -0.049, M -0.049, L -0.016, G -0.032, Y 0.126, P -0.221, K -0.029, W 0.024, D 0.057, A 0.011, N 0.285, F -0.008, T -0.095, C -0.03, R -0.004, Q 0.086
L17: R -0.664, Q -0.668, K -0.62, P -1.06, V -0.286, T -0.779, H -0.54, F -0.309, A -0.346, M -0.072, Y -0.33, E -0.804, N -0.455, C -0.31, I -0.126, S -0.608, G -0.802, W -0.336
A7: G -0.594, P -0.525, F -0.721, V 0.007, R -0.594, E -0.884, M -0.395, S -0.203, N -0.582, Y -0.708, Q -0.712, K -0.489, T -0.138, L -0.656, H -0.668
V19: I -0.012, K 0.003, Q 0.11, M 0.096, G -0.55, E -0.396, C -0.104, W -0.016, H -0.14, Y -0.027, T -0.125, S -0.062, P -0.827, D -0.308, R -0.019, L -0.016
D23: C -0.185, V -0.152, W -0.405, S -0.027, R -0.173, P -0.913, M -0.022, E 0.027, T -0.118, L -0.281, Y -0.115, A -0.009, F -0.208, G -0.067, H -0.156, Q 0.016, N -0.067
K16: Q 0.027, L -0.071, A 0.085, I -0.104, F -0.138, C -0.004, P -0.888, W -0.177, T -0.032, S 0.013, N 0.011, Y -0.129, D 0.029, E 0.063, R 0.035, H -0.029
E8: W -0.284, V 0.015, I -0.234, S 0.014, G -0.048, Q -0.019, Y -0.017, M -0.069, N 0.063, R -0.002, T -0.078, C -0.238, F -0.223, P -0.749, H -0.164, D -0.13, L 0.018, A -0.008
G18: R -0.231, A -0.268, K -0.167, E -0.332, M -0.639, L -0.724, S -0.241, T -0.91, D -0.394, C -0.475, F -0.663
R9: H -0.003, E -0.019, L 0.061, G -0.015, T 0.058, D -0.122, M 0.005, Q -0.043, V -0.047, W -0.154, F -0.178, N 0.012, C -0.007, K -0.143, Y -0.035, I -0.004
V24: E -0.679, F -0.337, N -0.531, P -1.06, R -0.745, L -0.062, C -0.326, D -0.66, T -0.544, A -0.241, H -0.815, M -0.253, S -0.688
K11: S -0.104, F -0.627, E -0.476, G -0.465, T -0.017, W -0.707, I -0.293, R 0.023, N -0.422, L -0.406, M -0.117, Q -0.107, P -0.833, Y -0.642, A -0.023, H 0.175, V -0.142
R13: S 0.014, N -0.156, H -0.103, K -0.048, T 0.008, W -0.321, M -0.023, G 0.013, V -0.065, F -0.203, D -0.253, A -0.026, C -0.369, L -0.148, I -0.09, E -0.065, P -1.06, Q -0.053
R14: K -1.09, P -1.13, L -0.768, F -1.07, D -0.952, W -1.02, Y -0.884, M -0.914, S -0.906, Q -1.08, G -1.07, I -0.866, N -0.923, V -0.932, A -0.919, H -1.16
I15: M 0.005, G -0.286, Q -0.013, N -0.113, H -0.083, V -0.023, C -0.048, E 0.02, A -0.099, Y -0.332, W -0.243, D -0.211, P -0.989, F -0.322, L -0.022, R -0.037, S -0.138
F10: S -0.914, C -0.867, W -0.237, Y -0.599, R -0.996, M -0.56, A -0.762, N -0.822, L -0.515, G -0.897, H -0.92, D -0.804, K -0.9, E -0.916, T -0.853, Q -1.04, P -0.908, I -0.676
G25: A 0.04, E 0.05, H 0.122, L -0.038, F -0.119, Y -0.058, V 0.068, N -0.117, C 0.025, K 0.009, M -0.009, Q -0.001, T -0.012, D 0.037, W -0.007, S 0.001
